Test results taken from the supplement of paper PMC10567573.

B1: SLC2A12 (parent)
chain: TRIMIGLTLVFFVQITGQPNILFY

Variants of: B1
Test: protein stability index of a GFP-peptide fusion (GPS, HEK-293T) (PSI 1-6); higher = more stable
Conditions: c terminus: a fixed tail appended
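Note: lentivirally expressed fusions sorted by FACS into six bins by GFP to DsRed ratio, PSI derived from sequencing read proportions per bin multiplied by bin number.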

Variant	protein stability index
TRIMIGLTLVFFVQITGQPSILFY [N20S]	2.15
TRIMIGLTLVFFVQITGQPMILFY [N20M]	3.84
TRIMIGLTLVFFVQITGQPVILFY [N20V]	2.81
TRIMIGLTLVFFVQITGQPAILFY [N20A]	3.57
TRIMIGLTLVFFVQITGQPKILFY [N20K]	4.43
TRIMIGLTLVFFVQITGQPGILFY [N20G]	3.69
TRIMIGLTLVFFVQITGQPHILFY [N20H]	3.83
TRIMIGLTLVFFVQITGQPRILFY [N20R]	2.67
TRIMIGLTLVFFVQITGQPYILFY [N20Y]	2.54
TRIMIGLTLVFFVQITGQPTILFY [N20T]	2.22
TRIMIGLTDVFFVQITGQPNILFY [L9D]	3.04
TRIMIGLTGVFFVQITGQPNILFY [L9G]	2.8
TRIMIGLTNVFFVQITGQPNILFY [L9N]	2.69
TRIMIGLTRVFFVQITGQPNILFY [L9R]	3.25
TRIMIGLTWVFFVQITGQPNILFY [L9W]	2.24
TRIMIGLTFVFFVQITGQPNILFY [L9F]	5.04
TRIMIGLTCVFFVQITGQPNILFY [L9C]	2.63
TCIMIGLTLVFFVQITGQPNILFY [R2C]	1.74
TKIMIGLTLVFFVQITGQPNILFY [R2K]	2.82
TGIMIGLTLVFFVQITGQPNILFY [R2G]	3.53
TQIMIGLTLVFFVQITGQPNILFY [R2Q]	4
TSIMIGLTLVFFVQITGQPNILFY [R2S]	2.95
TLIMIGLTLVFFVQITGQPNILFY [R2L]	2.57
THIMIGLTLVFFVQITGQPNILFY [R2H]	2.17

Variant	protein stability index
TRIMIGLTLVFFMQITGQPNILFY [V13M]	3.17
TRIMIGLTLVFFWQITGQPNILFY [V13W]	2.85
TRIMIGLTLVFFRQITGQPNILFY [V13R]	2.87
TRIMIGLTLVFFNQITGQPNILFY [V13N]	3.86
TRIMIGLTLVFFQQITGQPNILFY [V13Q]	2.33
TRIMIGLTLVFFTQITGQPNILFY [V13T]	3.18
TRIMIGLTLVFFPQITGQPNILFY [V13P]	3.01
TRIMIGLTLVFFVQITGQPNNLFY [I21N]	2.52
TRIMIGLTLVFFVQITGQPNMLFY [I21M]	1.89
TRIMIGLTLVFFVQITGQPNLLFY [I21L]	2.73
TRIMIGLTLVFFVQITGQPNFLFY [I21F]	3.31
TRIMIGLTLVFFVQITGQPNCLFY [I21C]	2.42
TRIMIGLTLVFFVQITGQPNSLFY [I21S]	4.17
TRIMIGLTLVFFVQITGQPNVLFY [I21V]	2.5
TRIMIGLTLVFFVQITGQPNHLFY [I21H]	2.49
TRIMIGLTLVFFVQITGQPNYLFY [I21Y]	2.98
TRIMIGLTLVFFVQITGQPNGLFY [I21G]	4.22
TRIMIGLTLVFFVGITGQPNILFY [Q14G]	3.68
TRIMIGLTLVFFVTITGQPNILFY [Q14T]	3.67
TRIMIGLTLVFFVDITGQPNILFY [Q14D]	2.14
TRIMIGLTLVFFVIITGQPNILFY [Q14I]	2.88
TRIMIGLTLVFFVLITGQPNILFY [Q14L]	3.19
TRIMIGSTLVFFVQITGQPNILFY [L7S]	3.54
TRIMIGATLVFFVQITGQPNILFY [L7A]	3.65

Variant	protein stability index
TRIMIGPTLVFFVQITGQPNILFY [L7P]	2.96
TRIMIGKTLVFFVQITGQPNILFY [L7K]	1.8
TRIMIGHTLVFFVQITGQPNILFY [L7H]	3.31
TRIMIGDTLVFFVQITGQPNILFY [L7D]	2.9
TRIMIGFTLVFFVQITGQPNILFY [L7F]	2.41
TRIMIGCTLVFFVQITGQPNILFY [L7C]	2.22
TRIMIGNTLVFFVQITGQPNILFY [L7N]	2.78
TRIMIGRTLVFFVQITGQPNILFY [L7R]	2.42
TRIMIGLTLVFFVQITGKPNILFY [Q18K]	3.22
TRIMIGLTLVFFVQITGAPNILFY [Q18A]	3.12
TRIMIGLTLVFFVQITGGPNILFY [Q18G]	3.24
TRIMIGLTLVFFVQITGRPNILFY [Q18R]	3.77
TRIMIGLTLVFFVQITGCPNILFY [Q18C]	2.86
TRIMIGLTLVFFVQITGVPNILFY [Q18V]	4.47
TRIMIGLTLVFFVQITGPPNILFY [Q18P]	3.94
TRIMIGLTLVFFVQITGNPNILFY [Q18N]	2.47
TRIMIGLTLVFFVQITGHPNILFY [Q18H]	3.08
KRIMIGLTLVFFVQITGQPNILFY [T1K]	2.57
WRIMIGLTLVFFVQITGQPNILFY [T1W]	3.23
SRIMIGLTLVFFVQITGQPNILFY [T1S]	3.37
YRIMIGLTLVFFVQITGQPNILFY [T1Y]	5.08
PRIMIGLTLVFFVQITGQPNILFY [T1P]	2.26
TRIMIGLTLVFAVQITGQPNILFY [F12A]	4.95
TRIMIGLTLVFPVQITGQPNILFY [F12P]	4.16

Variant	protein stability index
TRIMIGLTLVFIVQITGQPNILFY [F12I]	2.79
TRIMIGLTLVFSVQITGQPNILFY [F12S]	3.48
TRIMIGLTLVFNVQITGQPNILFY [F12N]	3.88
TRIMIGLTLVFMVQITGQPNILFY [F12M]	2.49
TRIMIGLTLVFEVQITGQPNILFY [F12E]	2.77
TRIMIGLTLVFVVQITGQPNILFY [F12V]	3.31
TRIMIGLTLVFWVQITGQPNILFY [F12W]	2.48
TRIMIGLTLVFKVQITGQPNILFY [F12K]	2.95
TRIMIGLTLKFFVQITGQPNILFY [V10K]	3.44
TRIMIGLTLDFFVQITGQPNILFY [V10D]	1.78
TRIMIGLTLPFFVQITGQPNILFY [V10P]	2.51
TRIMIGLTLLFFVQITGQPNILFY [V10L]	2.4
TRIMIGLTLRFFVQITGQPNILFY [V10R]	2.5
TRIMIGLTLHFFVQITGQPNILFY [V10H]	3.39
TRIMIGLTLYFFVQITGQPNILFY [V10Y]	2.56
TRIMIGLTLTFFVQITGQPNILFY [V10T]	3.36
TRIMIGLTLCFFVQITGQPNILFY [V10C]	2.69
TRIMIGLTLGFFVQITGQPNILFY [V10G]	3.27
TRIMIGLTLVFFVQITGQPNIIFY [L22I]	1.48
TRIMIGLTLVFFVQITGQPNIWFY [L22W]	2.65
TRIMIGLTLVFFVQITGQPNIDFY [L22D]	3.15
TRIMIGLTLVFFVQITGQPNINFY [L22N]	3.01
